B1: Serine/threonine-protein kinase/endoribonuclease IRE1 (Saccharomyces cerevisiae), P32361 (parent)
chain: MRLLRRNMLVLTLLVCVFSSIISCSIPLSSRTSRRQIVEDEVASTKKLNFNYGVDKNINSPIPAPRTTEGLPNMKLSSYPTPNLLNTADNRRANKKGRRAANSISVPYLENRSLNELSLSDILIAADVEGGLHAVDRRNGHIIWSIEPENFQPLIEIQEPSRLETYETLIIEPFGDGNIYYFNAHQGLQKLPLSIRQLVSTSPLHLKTNIVVNDSGKIVEDEKVYTGSMRTIMYTINMLNGEIISAFGPGSKNGYFGSQSVDCSPEEKIKLQECENMIVIGKTIFELGIHSYDGASYNVTYSTWQQNVLDVPLALQNTFSKDGMCIAPFRDKSLLASDLDFRIARWVSPTFPGIIVGLFDVFNDLRTNENILVPHPFNPGDHESISSNKVYLDQTSNLSWFALSSQNFPSLVESAPISRYASSDRWRVSSIFEDETLFKNAIMGVHQIYNNEYDHLYENYEKTNSLDTTHKYPPLMIDSSVDTTDLHQNNEMNSLKEYMSPEDLEAYRKKIHEQISRELDEKNQNSLLLKFGSLVYRIIETGVFLLLFLIFCAILQRFKILPPLYVLLSKIGFMPEKEIPIVESKSLNCPSSSENVTKPFDMKSGKQVVFEGAVNDGSLKSEKDNDDADEDDEKSLDLTTEKKKRKRGSRGGKKGRKSRIANIPNFEQSLKNLVVSEKILGYGSSGTVVFQGSFQGRPVAVKRMLIDFCDIALMEIKLLTESDDHPNVIRYYCSETTDRFLYIALELCNLNLQDLVESKNVSDENLKLQKEYNPISLLRQIASGVAHLHSLKIIHRDLKPQNILVSTSSRFTADQQTGAENLRILISDFGLCKKLDSGQSSFRTNLNNPSGTSGWRAPELLEESNNLQCQVETEHSSSRHTVVSSDSFYDPFTKRRLTRSIDIFSMGCVFYYILSKGKHPFGDKYSRESNIIRGIFSLDEMKCLHDRSLIAEATDLISQMIDHDPLKRPTAMKVLRHPLFWPKSKKLEFLLKVSDRLEIENRDPPSALLMKFDAGSDFVIPSGDWTVKFDKTFMDNLERYRKYHSSKLMDLLRALRNKYHHFMDLPEDIAELMGPVPDGFYDYFTKRFPNLLIGVYMIVKENLSDDQILREFLYS
partner: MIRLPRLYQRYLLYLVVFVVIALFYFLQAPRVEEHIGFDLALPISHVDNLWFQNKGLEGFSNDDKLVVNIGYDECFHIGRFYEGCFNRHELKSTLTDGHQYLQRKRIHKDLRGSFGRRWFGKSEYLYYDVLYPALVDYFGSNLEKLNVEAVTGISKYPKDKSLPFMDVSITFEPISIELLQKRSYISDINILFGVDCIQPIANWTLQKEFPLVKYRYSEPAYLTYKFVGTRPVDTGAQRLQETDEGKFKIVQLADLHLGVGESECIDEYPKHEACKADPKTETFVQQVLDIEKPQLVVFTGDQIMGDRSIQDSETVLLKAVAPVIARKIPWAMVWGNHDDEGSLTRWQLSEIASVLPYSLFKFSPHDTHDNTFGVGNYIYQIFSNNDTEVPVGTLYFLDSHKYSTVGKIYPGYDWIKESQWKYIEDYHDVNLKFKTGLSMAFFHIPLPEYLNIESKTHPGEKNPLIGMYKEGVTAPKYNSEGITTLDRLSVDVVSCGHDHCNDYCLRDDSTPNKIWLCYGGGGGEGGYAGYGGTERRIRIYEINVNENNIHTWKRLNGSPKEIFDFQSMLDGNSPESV

Variants of: B1
Conditions: with dcr2_yeast DCR2, Q05924

| effect of a mutation on the interaction | Variant |
| --- | --- |
| increasing interaction | S840A |
| increasing interaction | S841A |
